Measurements: PMC9249833

Biological target: HisTmod (His-tagged recombinant AjTmod) (Apostichopus japonicus)
Assay: MST; Monolith NT.115; His-tagged AjTmod labelled with NT-647-NHS (about 5 uM), 16 serial concentrations of the unlabelled partner; 50 mM Tris-HCl pH 8.0, 0.02% Tween 20; 25 °C; three repeats

GSTFliC fusion protein (GST-fused Vibrio splendidus AJ01 flagellin C) (natural protein)
Kd: 8.6 nM
